In patent US20110262366A1 (published 2011):
Starred links: 1 amine or outer side, 2 acyl side, 3 side chain; linkers in the order of their positions; H or OH if unused. No end group written: not given here. NH(CH2)3(OCH2CH2)2O(CH2)3NH = C(CN[*:1])COCCOCCOCCCN[*:2]; Oregon Green = Oregon Green fluorescent reporter dye

Target: T1, NP-1/Fc (Neuropilin-1/Fc, R&D Systems)
T1 construct: Bought reagent; also called Npn-1
Assay: competition with 250 pM ^125I-VEGF165 on NP-1/Fc-coated plates, 4° C., 2 h
Experimental: The next day all wells, even control wells lacking NP-1/Fc, were blocked 2 hrs with blocking buffer (1% BSA in D-PBS with 0.05% v/v Tween-20) then washed 4× with PBST (D-PBS/0.05% v/v Tween-20) before starting the assay. All points were derived from triplicate wells, and for each set of replicates in NP-1/Fc-coated wells, a companion set in the absence of the receptor was included. […] After addition of the appropriate solutions, microtiter plates were incubated at 4° C. for 2 hours. Following the incubation, plates were hand-washed 5 times with D-PBS containing 0.05% Tween-20 and 0.1% BSA. […] VEGF₁₆₅ (Cat. No. 100-20) was obtained from Peprotech.

T1 sequence (Q9QWJ9 22-855): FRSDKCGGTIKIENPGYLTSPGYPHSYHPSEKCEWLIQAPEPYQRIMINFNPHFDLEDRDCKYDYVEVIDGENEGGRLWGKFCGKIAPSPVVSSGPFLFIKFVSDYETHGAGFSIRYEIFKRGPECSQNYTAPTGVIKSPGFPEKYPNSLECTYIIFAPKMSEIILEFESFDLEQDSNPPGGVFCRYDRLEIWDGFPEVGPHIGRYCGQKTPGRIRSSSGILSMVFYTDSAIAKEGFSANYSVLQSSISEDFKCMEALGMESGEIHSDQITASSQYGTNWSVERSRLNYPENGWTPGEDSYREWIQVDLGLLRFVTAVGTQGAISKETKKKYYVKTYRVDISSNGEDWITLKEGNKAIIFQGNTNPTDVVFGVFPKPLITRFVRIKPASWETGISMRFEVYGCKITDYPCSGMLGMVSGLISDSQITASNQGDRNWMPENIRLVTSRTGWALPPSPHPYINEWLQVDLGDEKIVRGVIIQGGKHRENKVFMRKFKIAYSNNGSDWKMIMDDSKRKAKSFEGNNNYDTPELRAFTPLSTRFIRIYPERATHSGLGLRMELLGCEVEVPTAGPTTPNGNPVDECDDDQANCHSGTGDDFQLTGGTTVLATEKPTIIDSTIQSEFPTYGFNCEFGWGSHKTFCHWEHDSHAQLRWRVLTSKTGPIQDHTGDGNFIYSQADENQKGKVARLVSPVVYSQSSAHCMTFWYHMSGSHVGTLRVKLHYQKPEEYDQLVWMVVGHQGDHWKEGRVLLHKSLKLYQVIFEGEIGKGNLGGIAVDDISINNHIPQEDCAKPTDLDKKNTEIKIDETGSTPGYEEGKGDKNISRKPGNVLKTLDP

B1: Tetramer BRU-346: TKPPR-K(RPPKT)-K[K(RPPKT)TKPPR]-G-Z-OG (peptide)
chain: TKPPRKRPPKTKKRPPKTTKPPRG-{NH(CH2)3(OCH2CH2)2O(CH2)3NH-Oregon Green}
modifications: also: branched on lysine core: TKPPR units linked via C-terminal Arg to Lys side chains, letters 7-11 and 14-18 written reversed, not a linear chain
notes: also called Reverse Tetramer; tetrameric TKPPR linked to a different scaffold through the C-terminal amino acid
  IC50: 8 µM
